B1: CDC25A (parent)
chain: TVAGKHQDLKYISPEIMASVLNGK
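Note: lentivirally expressed fusions sorted by FACS into six bins by GFP to DsRed ratio, PSI derived from sequencing read proportions per bin multiplied by bin number.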

Variants of: B1
Experiment: protein stability index of a GFP-peptide fusion (GPS, HEK-293T) (PSI 1-6); higher = more stable
Conditions: c terminus: a fixed tail appended
Variant TVAGKHQDLKYISPEIMASVLMGK [N22M] has a protein stability index of 2.66. For TVAGKHQDLKYISPEIMASVLTGK [N22T], the protein stability index was 2.88. For TVAGKRQDLKYISPEIMASVLNGK [H6R], the protein stability index was 2.81. In the case of TVAGKNQDLKYISPEIMASVLNGK [H6N], the protein stability index is reported as 2.96. In the case of TVAGKGQDLKYISPEIMASVLNGK [H6G], the protein stability index is reported as 3.06. In the case of TVAGKWQDLKYISPEIMASVLNGK [H6W], the protein stability index is reported as 2.24. With TVAGKFQDLKYISPEIMASVLNGK [H6F] the protein stability index was 2.75. TVAGKIQDLKYISPEIMASVLNGK [H6I] gave a protein stability index of 2.63. Variant TVAGKDQDLKYISPEIMASVLNGK [H6D] has a protein stability index of 3.92. Work on TVAGKVQDLKYISPEIMASVLNGK [H6V] yielded a protein stability index of 2.45. For TVAGKHQDLKYISPEIMASLLNGK [V20L], the protein stability index was 2.84. For TVAGKHQDLKYISPEIMASGLNGK [V20G], the protein stability index was 3.79. TVAGKHQDLKYISPEIMASPLNGK [V20P] showed a protein stability index of 3.64. Variant TVAGKHQDLKYISPEIMASTLNGK [V20T] has a protein stability index of 3.75. For TVAGKHQDLKYISPEIMASHLNGK [V20H], the protein stability index was 3.33. For TVAGKHQDLKYISPEIMASFLNGK [V20F], the protein stability index was 2.92. With TVAGKHQDLKYISPEIMASALNGK [V20A] the protein stability index was 3.56. For TVAGKHQDLCYISPEIMASVLNGK [K10C], the protein stability index was 2.52. With TVAGKHQDLRYISPEIMASVLNGK [K10R] the protein stability index was 2.8. TVAGKHQDLSYISPEIMASVLNGK [K10S] showed a protein stability index of 2.99. With TVAGKHQDLHYISPEIMASVLNGK [K10H] the protein stability index was 2.88. Work on TVAGKHQDLGYISPEIMASVLNGK [K10G] yielded a protein stability index of 3.44. TVAGKHQDLKYISPEIMQSVLNGK [A18Q] showed a protein stability index of 3.34. TVAGKHQDLKYISPEIMSSVLNGK [A18S] showed a protein stability index of 3.3. Work on TVAGKHQDLKYISPEIMKSVLNGK [A18K] yielded a protein stability index of 3.16. Variant TVAGKHQDLKYISPEIMYSVLNGK [A18Y] has a protein stability index of 2.65. For TVAGKHQDLKYISPEIMNSVLNGK [A18N], the protein stability index was 3.1. For TVAGKHQDLKYISPEIMDSVLNGK [A18D], the protein stability index was 3.45. In the case of TVAGKHQDLKYISPEIMISVLNGK [A18I], the protein stability index is reported as 2.13. With TVAGKHQDLKYISPEIMLSVLNGK [A18L] the protein stability index was 2.53. For TVAGKHQDLKYISPEWMASVLNGK [I16W], the protein stability index was 2.87. Work on TVAGKHQDLKYISPEEMASVLNGK [I16E] yielded a protein stability index of 4.29. With TVAGKHQDLKYISPEFMASVLNGK [I16F] the protein stability index was 2.87. With TVAGKHQDLKYISPEAMASVLNGK [I16A] the protein stability index was 3.66. Variant TVAGKHQDLKYISPEIYASVLNGK [M17Y] has a protein stability index of 3.1. TVAGKHQDLKYISPEIEASVLNGK [M17E] showed a protein stability index of 4.21. TVAGKHQDLKYISPEIKASVLNGK [M17K] gave a protein stability index of 3.96. In the case of TVAGKHQDLKYISPEICASVLNGK [M17C], the protein stability index is reported as 3.42. With TVAGKHQDLKYISPEIWASVLNGK [M17W] the protein stability index was 2.46. TVAGKHQDLKYISPEINASVLNGK [M17N] showed a protein stability index of 3.74. TVAGKHQCLKYISPEIMASVLNGK [D8C] showed a protein stability index of 2.32. TVAGKHQRLKYISPEIMASVLNGK [D8R] showed a protein stability index of 2.28. Work on TVAGKHQWLKYISPEIMASVLNGK [D8W] yielded a protein stability index of 1.68. For TVAGKHQFLKYISPEIMASVLNGK [D8F], the protein stability index was 1.87. Variant TVAGKHQPLKYISPEIMASVLNGK [D8P] has a protein stability index of 2.91. With TVAGKHQGLKYISPEIMASVLNGK [D8G] the protein stability index was 3.06. TVAGKHQLLKYISPEIMASVLNGK [D8L] showed a protein stability index of 2.05. For TVAGKHQTLKYISPEIMASVLNGK [D8T], the protein stability index was 2.56. TVAGKHQSLKYISPEIMASVLNGK [D8S] showed a protein stability index of 2.63. With TNAGKHQDLKYISPEIMASVLNGK [V2N] the protein stability index was 3.11. For TTAGKHQDLKYISPEIMASVLNGK [V2T], the protein stability index was 3.41. For TQAGKHQDLKYISPEIMASVLNGK [V2Q], the protein stability index was 3.35. In the case of TCAGKHQDLKYISPEIMASVLNGK [V2C], the protein stability index is reported as 3.32. With THAGKHQDLKYISPEIMASVLNGK [V2H] the protein stability index was 3.33. For TFAGKHQDLKYISPEIMASVLNGK [V2F], the protein stability index was 2.94. TKAGKHQDLKYISPEIMASVLNGK [V2K] showed a protein stability index of 2.92. TWAGKHQDLKYISPEIMASVLNGK [V2W] showed a protein stability index of 2.55. Variant TVAGKHQDLKYISPEIMATVLNGK [S19T] has a protein stability index of 2.83. TVAGKHQDLKYISPEIMAEVLNGK [S19E] showed a protein stability index of 4.06. In the case of TVAGKHQDLKYISPEIMALVLNGK [S19L], the protein stability index is reported as 1.86. Work on TVAGKHQDLKYISPEIMANVLNGK [S19N] yielded a protein stability index of 3.61. Variant TVAGKHQDLKYISPEIMAYVLNGK [S19Y] has a protein stability index of 1.88. TVAGKHQDLKYISPEIMAQVLNGK [S19Q] showed a protein stability index of 3.28. Work on TVAGKHQDLKYISPEIMADVLNGK [S19D] yielded a protein stability index of 3.41. Variant TVAGKHQDLKYISPEIMAMVLNGK [S19M] has a protein stability index of 2.38. Variant TVAGKHQDLKSISPEIMASVLNGK [Y11S] has a protein stability index of 3.71. With TVAGKHQDLKGISPEIMASVLNGK [Y11G] the protein stability index was 3.87. TVAGKHQDLKVISPEIMASVLNGK [Y11V] gave a protein stability index of 3.29. For TVAGKHQDLKCISPEIMASVLNGK [Y11C], the protein stability index was 3.32. With TVAGKHQDLKTISPEIMASVLNGK [Y11T] the protein stability index was 3.79. For TVAGKHQDLKKISPEIMASVLNGK [Y11K], the protein stability index was 3.53. For TVAGKHQDLKYISPEIMASVLNGE [K24E], the protein stability index was 3.73. For TVAGKHQDLKYISPEIMASVLNGY [K24Y], the protein stability index was 2.01. For TVAGKHQDLKYISPEIMASVLNGF [K24F], the protein stability index was 1.89. TVAGKHQDLKYISPEIMASVLNGI [K24I] gave a protein stability index of 2.01. Work on TVAGKHQDLKYISPEIMASVLNGH [K24H] yielded a protein stability index of 2.44. Variant TVAGKHQDLKYISPKIMASVLNGK [E15K] has a protein stability index of 2.68. Work on TVAGKHQDLKYISPDIMASVLNGK [E15D] yielded a protein stability index of 3.42. For TVAGKHQDLKYISPIIMASVLNGK [E15I], the protein stability index was 1.78. TVAGKHQDLKYISPQIMASVLNGK [E15Q] gave a protein stability index of 2.82. TVAGKHQDLKYISPVIMASVLNGK [E15V] gave a protein stability index of 1.89. TVAGKHQDLKYISPHIMASVLNGK [E15H] showed a protein stability index of 2.74. With TVAGKHQDLKYISPEIMASVGNGK [L21G] the protein stability index was 3.83. In the case of TVAGKHQDLKYISPEIMASVNNGK [L21N], the protein stability index is reported as 3.65. TVAGKHQDLKYISPEIMASVWNGK [L21W] gave a protein stability index of 3.17. For TVAGKHQDLKYISPEIMASVQNGK [L21Q], the protein stability index was 4. Work on TVAGKHQDLKYISPEIMASVINGK [L21I] yielded a protein stability index of 3.35. Work on TVAGKHQDLKYISPEIMASVVNGK [L21V] yielded a protein stability index of 3.54. Work on TVAGKHQDLKYPSPEIMASVLNGK [I12P] yielded a protein stability index of 3.57. For TVAGKHQDLKYWSPEIMASVLNGK [I12W], the protein stability index was 2.64. For TVAGKHQDLKYMSPEIMASVLNGK [I12M], the protein stability index was 3.48. With TVAGKHQDLKYKSPEIMASVLNGK [I12K] the protein stability index was 3.83. TVAGKHQDLKYFSPEIMASVLNGK [I12F] gave a protein stability index of 2.94. TVAGKHQDLKYVSPEIMASVLNGK [I12V] gave a protein stability index of 3.71.
